Experimental data from article PMC8967036, “Engineering of phenylalanine dehydrogenase from Thermoactinomyces intermedius for the production of a novel homoglutamate” (PLoS ONE, 2022).
Residue numbers refer to the chain shown, from its start. Numbers in names are those of the source.

B1: TiPDH (phenylalanine dehydrogenase) (Thermoactinomyces intermedius) (protein)
chain: MRDVFEMMDRYGHEQVIFCRHPQTGLKAIIALHNTTAGPALGGCRMIPYASTDEALEDVLRLSKGMTYKCSLADVDFGGGKMVIIGDPKKDKSPELFRVIGRFVGGLNGRFYTGTDMGTNPEDFVHAARESKSFAGLPKSYGGKGDTSIPTALGVFHGMRATARFLWGTDQLKGRVVAIQGVGKVGERLLQLLVEVGAYCKIADIDSVRCEQLKEKYGDKVQLVDVNRIHKESCDIFSPCAKGGVVNDDTIDEFRCLAIVGSANNQLVEDRHGALLQKRSICYAPDYLVNAGGLIQVADELEGFHEERVLAKTEAIYDMVLDIFHRAKNENITTCEAADRIVMERLKKLTDIRRILLEDPRNSARR
notes: His-tagged, pET-Duet1, E. coli BL21(DE3), Ni-NTA purified
B2: TiPDH (phenylalanine dehydrogenase) (Thermoactinomyces intermedius; A135R) (protein)
chain: B1 chain with A135R
notes: as for B1

How the values were obtained:
purified protein [1] = substrate: O=C(O)CCCC(=O)C(=O)O; assay: purified protein; assay type: biochemical, Thermoactinomyces intermedius; conditions: reductive amination, Tris-NH4Cl pH 8.0, 1 mM NADH, 37°C (general assay)
purified protein [2] = substrate: O=C(O)C(=O)Cc1ccccc1; assay: purified protein; assay type: biochemical, Thermoactinomyces intermedius; conditions: reductive amination, Tris-NH4Cl pH 8.0, 1 mM NADH, 37°C (general assay)
[3] = mutant called only 'mutated TiPDH' at the number, A135R by b37-b38 (G114R and double mutant inactive)

Protein | Km (purified protein [1]) | kcat (purified protein [1]) | Km (purified protein [2]; natural substrate) | kcat (purified protein [2]; natural substrate) | Km (purified protein [1]; [3]) | kcat (purified protein [1]; [3]) | Km (purified protein [2]) | kcat (purified protein [2])
B1 | 1.771 µM | 0.00513 s⁻¹ | 0.66 µM | 0.3715 s⁻¹ |  |  |  | 
B2 |  |  |  |  | 7.518 µM | 0.0228 s⁻¹ | 1.2 µM | 0.4307 s⁻¹
